From PMC7835349 (Communications Biology, 2021)
“And” between values parts separate entries of the source, which are not always exact repeats. Equal values may be shown once.

Experiments:
[1] = Body weight and tolerability in RS4;11 xenograft mice; format: in vivo, C.B-17 SCID mouse; conditions: for Percentage Body Weight Change post Dosing: single animals
Procedure: Female C.B.−17 SCID mice were purchased from Charles River Laboratories. Mice were 5–8 weeks old at the time of tumour implantation. All xenograft studies were conducted at our Association for the Assessment and Accreditation of Laboratory Animal Care accredited facility in Waltham, MA in accordance with ethical regulations described in the guidelines established by the internal Institutional Animal Care and Use Committee. The dendrimer conjugates were formulated in citrate/phosphate buffer pH 5.0, diluted 1:10 with 5% glucose containing 1% w/v Kolliphor HS15, and AZD4320 was formulated in 30% HP-β-CD and dosed as a weekly intravenous (IV) administration at a volume of 5 ml/kg at the indicated doses. Five million RS4;11, five million SUDHL-4 or five million OCI-LY-10 cells were injected subcutaneously in the right flank of mice in a volume of 0.1 ml. Tumour volumes (measured by caliper), animal body weight, and tumor condition were recorded twice weekly for the duration of the study. The tumour volume was calculated (taking length to be the longest diameter across the tumour and width to be the corresponding perpendicular diameter) using the formula: length (mm) x width (mm)^2/0.52. For efficacy studies, mice were randomized based on tumour volumes using stratified sampling and enrolled into control and treatment groups. Tumour growth inhibition from the start of treatment was quantified by measuring the difference in tumour volume between control and treated groups. Survival analysis was evaluated using Mantel-Cox test. Tumours were also taken for bioanalysis. […]
Supplementary Figure 13. Percent total body weight change in mouse RS4;11 xenograft model (n=6). Percent change in body weight of mice measured twice weekly after start of treatment with various doses of AZD0466. […]

[2] = In vitro release of AZD4320 from conjugate in rat plasma with 5% HEPES, 37 °C (Fig S8); format: in vitro ADME; conditions: Rat Plasma 37 °C
Procedure: AZD4320 loading was quantified by 1H NMR spectroscopy. […]
conjugated AZD4320 peak areas. […]
AZD4320 conjugated dendrimer in plasma
Supplementary Figure 8. Comparison and release rate in plasma and buffer. Cumulative in vitro release of AZD4320 measured over time from AZD4320-dendrimer conjugate SPL8977) in phosphate buffered saline (purple circles, n=3) and rat plasma (green squares, n=2) and fit to first order model at 37 °C (n=2) […]

[3] = test system: SUDHL-4 xenograft; assay: SUDHL-4 xenograft efficacy and survival; format: in vivo, C.B-17 SCID mouse
Procedure: Female C.B.−17 SCID mice were purchased from Charles River Laboratories. Mice were 5–8 weeks old at the time of tumour implantation. All xenograft studies were conducted at our Association for the Assessment and Accreditation of Laboratory Animal Care accredited facility in Waltham, MA in accordance with ethical regulations described in the guidelines established by the internal Institutional Animal Care and Use Committee. The dendrimer conjugates were formulated in citrate/phosphate buffer pH 5.0, diluted 1:10 with 5% glucose containing 1% w/v Kolliphor HS15, and AZD4320 was formulated in 30% HP-β-CD and dosed as a weekly intravenous (IV) administration at a volume of 5 ml/kg at the indicated doses. Five million RS4;11, five million SUDHL-4 or five million OCI-LY-10 cells were injected subcutaneously in the right flank of mice in a volume of 0.1 ml. Tumour volumes (measured by caliper), animal body weight, and tumor condition were recorded twice weekly for the duration of the study. The tumour volume was calculated (taking length to be the longest diameter across the tumour and width to be the corresponding perpendicular diameter) using the formula: length (mm) x width (mm)^2/0.52. For efficacy studies, mice were randomized based on tumour volumes using stratified sampling and enrolled into control and treatment groups. Tumour growth inhibition from the start of treatment was quantified by measuring the difference in tumour volume between control and treated groups. Survival analysis was evaluated using Mantel-Cox test. Tumours were also taken for bioanalysis.

[4] = test system: platelets; assay: Platelet count in dogs; format: in vivo; conditions: dog, weekly ascending doses

AZD4320-MIDA-PEG2100 [AZD0466]
Percentage Body Weight Change post Dosing ([1]; 10 mg/kg (3mg/kg AZD4320), day 41 post implant): 0%
Percentage Body Weight Change post Dosing ([1]; 10 mg/kg (3mg/kg AZD4320), day 44 post implant): -1.896% and 0% and -3.365% and -4.5045% and -0.9756% and 0.4739%
Percentage Body Weight Change post Dosing ([1]; 10 mg/kg (3mg/kg AZD4320), day 48 post implant): 2.37% and 2.899% and -4.327% and 0% (2×) and -0.9479%
Percentage Body Weight Change post Dosing ([1]; 10 mg/kg (3mg/kg AZD4320), day 51 post implant): -2.8436% and -2.415% and -3.365% and -4.054% and -0.9756% and -3.318%
Percentage Body Weight Change post Dosing ([1]; 10 mg/kg (3mg/kg AZD4320), day 55 post implant): 1.4218% and 2.415% and -1.923% and 0.9009% and 1.951% and 0.4739%
Percentage Body Weight Change post Dosing ([1]; 10 mg/kg (3mg/kg AZD4320), day 58 post implant): -0.9479% and -0.4831% and -2.885% and 0% and 2.927% and 0.4739%
Percentage Body Weight Change post Dosing ([1]; 10 mg/kg (3mg/kg AZD4320), day 63 post implant): 5.6872% and 4.831% and -0.9615% and 3.6036% and 7.317% and 2.8436%
Percentage Body Weight Change post Dosing ([1]; 10 mg/kg (3mg/kg AZD4320), day 66 post implant): 4.2654% and 2.415% and -4.327% and 0.4505% and 3.415% and -1.4218%
Percentage Body Weight Change post Dosing ([1]; 10 mg/kg (3mg/kg AZD4320), day 70 post implant): 2.8436% and 1.449% and -1.923% and 3.153% and 5.366% and 0.9479%
Percentage Body Weight Change post Dosing ([1]; 10 mg/kg (3mg/kg AZD4320), day 73 post implant): 3.318% and 7.246% and -1.442% and 1.8018% and 6.829% and 0%
Percentage Body Weight Change post Dosing ([1]; 10 mg/kg (3mg/kg AZD4320), day 77 post implant): 3.791% and 4.348% and -2.404% and 2.7027% and 5.854% and 0%
Percentage Body Weight Change post Dosing ([1]; 10 mg/kg (3mg/kg AZD4320), day 80 post implant): 7.109% and 6.763% and 2.404% and 9.268% and 2.8436%
Percentage Body Weight Change post Dosing ([1]; 10 mg/kg (3mg/kg AZD4320), day 83 post implant): 6.635% and 1.932% and 1.923% and 8.78% and 1.4218%
Percentage Body Weight Change post Dosing ([1]; 34 mg/kg (10mg/kg AZD4320), day 41 post implant): 0%
Percentage Body Weight Change post Dosing ([1]; 34 mg/kg (10mg/kg AZD4320), day 44 post implant): -0.9346% and -3.922% and -3.6036% and -0.5155% and -2.427% and -2.913%
Percentage Body Weight Change post Dosing ([1]; 34 mg/kg (10mg/kg AZD4320), day 48 post implant): -2.336% and -1.471% and -2.252% and -1.546% and 0% and -1.456%
Percentage Body Weight Change post Dosing ([1]; 34 mg/kg (10mg/kg AZD4320), day 51 post implant): -2.804% and -6.373% and -5.405% and -1.031% and -4.369% and -1.942%
Percentage Body Weight Change post Dosing ([1]; 34 mg/kg (10mg/kg AZD4320), day 55 post implant): -1.869% and -0.4902% and -2.252% and 1.031% and -1.942% and -0.9709%
Percentage Body Weight Change post Dosing ([1]; 34 mg/kg (10mg/kg AZD4320), day 58 post implant): -1.402% and -3.431% and -3.153% and 1.546% and -2.913% and -0.9709%
Percentage Body Weight Change post Dosing ([1]; 34 mg/kg (10mg/kg AZD4320), day 63 post implant): 2.336% and -2.451% and 0% and 5.361% and 1.942% and 6.311%
Percentage Body Weight Change post Dosing ([1]; 34 mg/kg (10mg/kg AZD4320), day 66 post implant): -2.336% and -4.412% and 0% and 1.031% and 1.456% and 6.796%
Percentage Body Weight Change post Dosing ([1]; 34 mg/kg (10mg/kg AZD4320), day 70 post implant): -0.9346% and -5.392% and 0.4505% and 2.062% and 2.913% and 2.427%
Percentage Body Weight Change post Dosing ([1]; 34 mg/kg (10mg/kg AZD4320), day 73 post implant): 2.336% and -3.431% and 2.252% and 1.546% and 3.883% and 3.398%
Percentage Body Weight Change post Dosing ([1]; 34 mg/kg (10mg/kg AZD4320), day 77 post implant): 3.271% and -3.922% and 1.351% and 3.093% and 2.913% and 2.427%
Percentage Body Weight Change post Dosing ([1]; 34 mg/kg (10mg/kg AZD4320), day 80 post implant): 4.6729% and -1.471% and 7.207% and 5.155% and 3.883% and 6.796%
Percentage Body Weight Change post Dosing ([1]; 34 mg/kg (10mg/kg AZD4320), day 83 post implant): 4.206% and -1.961% and 7.658% and 4.639% and 4.854% and 9.709%
Percentage Body Weight Change post Dosing ([1]; 103 mg/kg (30mg/kg AZD4320), day 41 post implant): 0%
Percentage Body Weight Change post Dosing ([1]; 103 mg/kg (30mg/kg AZD4320), day 44 post implant): -2.415% and -9.211% and -6.161% and -5.804% and 0% and -2%
Percentage Body Weight Change post Dosing ([1]; 103 mg/kg (30mg/kg AZD4320), day 48 post implant): -0.9662% and -3.509% and -6.161% and -4.464% and -1.415% and -2.5%
Percentage Body Weight Change post Dosing ([1]; 103 mg/kg (30mg/kg AZD4320), day 51 post implant): -1.449% and -4.386% and -7.109% and -5.357% and -2.83% and -4%
Percentage Body Weight Change post Dosing ([1]; 103 mg/kg (30mg/kg AZD4320), day 55 post implant): 0.4831% and -0.4386% and -5.213% and -3.125% and 0% and -3.5%
Percentage Body Weight Change post Dosing ([1]; 103 mg/kg (30mg/kg AZD4320), day 58 post implant): -0.9662% and -1.754% and -5.213% and -4.464% and -0.9434% and -5.5%
Percentage Body Weight Change post Dosing ([1]; 103 mg/kg (30mg/kg AZD4320), day 63 post implant): 0.4831% and 1.842% and -3.791% and -2.232% and -1.887% and -2%
Percentage Body Weight Change post Dosing ([1]; 103 mg/kg (30mg/kg AZD4320), day 66 post implant): -1.932% and -0.4386% and -4.2654% and -2.679% and -0.9434% and -2.5%
Percentage Body Weight Change post Dosing ([1]; 103 mg/kg (30mg/kg AZD4320), day 70 post implant): -1.449% and 0.4386% and -3.318% and -1.786% and -0.9434% and -8%
Percentage Body Weight Change post Dosing ([1]; 103 mg/kg (30mg/kg AZD4320), day 73 post implant): 0.4831% and 1.316% and -1.896% and -4.018% and -2.83% and -4%
Percentage Body Weight Change post Dosing ([1]; 103 mg/kg (30mg/kg AZD4320), day 77 post implant): 0.4831% and 1.316% and 0% (2×) and -2.679% and -4%
Percentage Body Weight Change post Dosing ([1]; 103 mg/kg (30mg/kg AZD4320), day 80 post implant): 4.348% and 1.754% and 2.8436% and -1.786% and 0.4717% and -3%
Percentage Body Weight Change post Dosing ([1]; 103 mg/kg (30mg/kg AZD4320), day 83 post implant): 2.415% and 3.509% and 4.2654% and -2.232% and 0.4717% and -2%
tolerability in xenograft mice ([1]; RS4;11 xenograft, all doses): well tolerated
Cummulative Release % ([2]; 1.06 h, Replicate 1): 2.56%
Cummulative Release % ([2]; 1.24 h, Replicate 2): 3.28%
Cummulative Release % ([2]; 5.87 h, Replicate 1): 9.61%
Cummulative Release % ([2]; 6.04 h, Replicate 2): 11.99%
Cummulative Release % ([2]; 10.67 h, Replicate 1): 18.75%
Cummulative Release % ([2]; 10.85 h, Replicate 2): 23.05%
Cummulative Release % ([2]; 15.47 h, Replicate 1): 27.34%
Cummulative Release % ([2]; 15.65 h, Replicate 2): 32.24%
Cummulative Release % ([2]; 20.27 h, Replicate 1): 39.17%
Cummulative Release % ([2]; 20.45 h, Replicate 2): 41.44%
animals with complete and durable regressions ([3]; SUDHL-4, 103 mg/kg AZD0466 + 10 mg/kg rituximab): 5/6
animals with complete and durable regressions ([3]; SUDHL-4, 172 mg/kg AZD0466 + 10 mg/kg rituximab): 6/6
combination effect ([3]; SUDHL-4, AZD0466 at various doses combined with 10 mg/kg rituximab): tumour regressions were seen in the combination groups at all doses
SUDHL-4 xenograft efficacy, Geo Mean ([3]; day 1): 200.82
SUDHL-4 xenograft efficacy, Geo Mean ([3]; day 5): 191.7
SUDHL-4 xenograft efficacy, Geo Mean ([3]; day 9): 255.655
SUDHL-4 xenograft efficacy, Geo Mean ([3]; day 12): 291.711
SUDHL-4 xenograft efficacy, Geo Mean ([3]; day 16): 450.847
SUDHL-4 xenograft efficacy, Geo Mean ([3]; day 19): 493.153
SUDHL-4 xenograft efficacy, Geo Mean ([3]; day 23): 795.158
SUDHL-4 xenograft efficacy, Geo Mean ([3]; day 26): 1047.96
SUDHL-4 xenograft efficacy, Geo Mean ([3]; day 29): 1181.66
effect on platelet count [4]: reversible and dose-dependent decrease in platelet count
